The test has as its target T1, GFP with a C-terminal BC2 tag (BC2 tag (beta-catenin 16-27) on GFP, chimera).
T1 construct: GFP ('modified GFP that contains BC2T as a C-terminal peptide tag'; its control is called wtGFP); variant and limits are in the Supplementary methods; BC2 tag (BC2T), residues 16-27 of beta-catenin, at the C-terminus; also called GFP_(BC2T); source: E. coli, soluble protein fraction of the lysate (pull-downs); protein expression and purification are told in the Supplementary methods
T1 chain: PDRKAAVSHWQQ
Description: SPR; measurements 'using the GFP_(BC2T) construct'; who was immobilised and the conditions are not told in the text shown (Supplementary methods, Supplementary Fig. 3). The note with it: both partners purified. In general terms: SPR reads the build-up and loss of mass on a sensor chip optically.

B1: BC2 nanobody (VHH)
VHH: QVQLVESGGGLVQPGGSLTLSCTASGFTLDHYDIGWFRQAPGKEREGVSCINNSDDDTYYADSVKGRFTIFMNNAKDTVYLQMNSLKPEDTAIYYCAEARGCKRGRYEYDFWGQGTQVTVSS
notes: In the pull-downs it is covalently coupled to Sepharose beads (BC2 nanotrap); also called BC2-Nb; wt; source: purified; expression and purification are told in the Supplementary methods
A word on the Kd: it is the constant that tells how readily two partners part at equilibrium. Usually koff stands for the first-order rate constant of dissociation. A low value points to a long-lived complex. As a reminder, the kon is the second-order rate constant of association. Low readings indicate slower complex formation, high ones faster complex formation. Molecule B1 registered a dissociation constant Kd of 1.4 ± 0.06 nM, a koff of 0.00064 s⁻¹ and a kon of 460000 M⁻¹ s⁻¹.

The values above are taken from paper PMC4726124, “Peptides in headlock – a novel high-affinity and versatile peptide-binding nanobody for proteomics and microscopy” (Scientific Reports, 2016).
